{"source": "paper PMC3564912", "about": "“Single Particle Electron Microscopy Analysis of the Bovine Anion Exchanger 1 Reveals a Flexible Linker Connecting the Cytoplasmic and Membrane Domains” (PLoS ONE, 2013)", "target": "the molecule itself", "experiment": "SEC; Superose 6 10/300, 50 mM Tris-HCl pH 7.5, 0.03% DDM, 0.15 M NaCl; sample after ion exchange and the dimer fraction run again"}
{"protein": "bovine anion exchanger 1 (AE1) (natural protein, UniProt Q9XSW5 1-930, looked up, anion exchanger 1 (AE1, band 3), bovine, native protein from erythrocyte membranes; monomer about 100 kDa; Solubilised in dodecyl maltoside (0.03% DDM in the final buffer); The dimer fraction from size exclusion was used; also called bovine AE1; full-length AE1 dimer; source: purified from bovine erythrocyte membranes (ghosts; DDM extraction, DE-52 ion exchange, Superose 6 size exclusion)) MGDPEEYEDQLEETLEQKEYEDHDSVSIPMEEAEGDTIQEEEAEARVNQLTDTDYHTTSQHPETHKVCVQLRELVMDEKNQEIQWMETARWVGLEENLGKDGIWGRPHLPYLNFWSLLELQKAFAKGTVLLDLPGKSLAEVANQLLDRFTFEGQIQPDDQDNLLRVLLLKHSHASDMEALGGVKPVVVTHSGDPSEPLLPQHPSLETELFCEQGEGSTRGHAPEILGKSPQDWEATLVLVGCARFLKRPVLGFVRLKEPMEPEPKPEGSEEPAVPVRFLIVLLGPEGPNINYTQLGRAAATLMSERVFWNDAYLAQSKETLVQSLEGFLDCSLVLPPLDAPSEKALLSLVPVQKELLRRRYLPSPAKPDPSIFKDLDVKKGPGDTPEDPLQRTGKLFGGLVRDIRRRYPRYLSDITDALSPQVLSAIIFIYFAALTPAITFGGLLGDKTENMIGVSELLLSTALQGIIFSLLGAQPLLVLGFSGPLLVFEEAFYSFCQTNNLEYIVGRVWIGFWLILLVVLVVAFEGSFLVRFISRYTQEIFSFLISLIFIYETFYKLVTIFQDHPLQKNYDHDVLTTPKPQAALPNTALLSLVLMAGTFFLAMMLRKFKNSSYFPGKLRRIIGDFGVPISILIMVMVDALIQDTYTQKLSVPEGLSVSNPTERDWLIHPLGIRVEFPIWMMFASALPALLVFILIFLESQITTLIISKPERKMVKGSGFHLDLLLIIGMGGVGAIFGMPWLSATTVRTVTHANALTVMSKDSTPGAVSQIQGVKEQRISGLLVAVLVGVSILMGPVLRHIPLAVLFGIFLYMGVTSLSGIQLFDRVLLLLKPRKYYPEVPYARRVKTWRMHLFTITQIVCLVVLWVVRSIKQISLALPFILILTVPLRRFLLPFIFRDMELKLLDADDVKLNLDEQNGQDEYDEVAMPV", "values": [{"measurement": "stoichiometry N", "value": 2}]}
